Values of other authors in paper PMC6191370.

What was measured:
[1] = molecular target: intermediate-affinity IL-2R (beta/gamma chains) (Homo sapiens) (UniProt P14784)
CD25 (Homo sapiens) = CD25 (Homo sapiens) (UniProt P01589)
Chain of UniProt P01589 (P01589 22-240): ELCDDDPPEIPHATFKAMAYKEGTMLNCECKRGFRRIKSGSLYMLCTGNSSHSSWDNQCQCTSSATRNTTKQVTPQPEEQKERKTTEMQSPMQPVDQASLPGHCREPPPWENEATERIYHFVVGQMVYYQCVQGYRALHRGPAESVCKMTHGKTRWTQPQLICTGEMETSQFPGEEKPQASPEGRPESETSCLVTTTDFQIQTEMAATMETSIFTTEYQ

Chain of UniProt P14784 (P14784 27-240, chain 1 of 2): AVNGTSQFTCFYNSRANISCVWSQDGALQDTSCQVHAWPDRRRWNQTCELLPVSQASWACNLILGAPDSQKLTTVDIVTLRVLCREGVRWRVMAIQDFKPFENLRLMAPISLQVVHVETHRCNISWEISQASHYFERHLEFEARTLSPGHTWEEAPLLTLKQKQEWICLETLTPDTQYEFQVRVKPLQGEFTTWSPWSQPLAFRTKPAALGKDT
Chain of UniProt P14784 (P31785 23-262, chain 2 of 2, further chain): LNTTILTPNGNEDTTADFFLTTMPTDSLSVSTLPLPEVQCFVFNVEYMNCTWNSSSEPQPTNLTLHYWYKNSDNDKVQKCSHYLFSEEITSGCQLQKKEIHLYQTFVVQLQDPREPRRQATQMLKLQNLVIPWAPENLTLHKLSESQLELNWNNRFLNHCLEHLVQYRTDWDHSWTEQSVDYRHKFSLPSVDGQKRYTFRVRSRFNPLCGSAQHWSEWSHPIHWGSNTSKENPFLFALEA

For IL-2 (from UniProt P60568), the Kd [1] is given as 1 nM and the Kd (CD25 (Homo sapiens)) is given as 10 nM.
